“Also recorded” adds a separate entry of the source.
What was measured:
[1] = molecular target: T1, rabbit muscle actin (Oryctolagus cuniculus, UniProt P68135); assay: In vitro bundling of actin by peptides (co-polymerization, differential centrifugation, SDS gel); type: biochemical; details: for In vitro actin bundling activity: Tables 2 and 3, peptide co-polymerized with actin in vitro; for activity designation of the peptide in the sequence list (active / less active / inactive): summary sequence table; for bundled actin upon inducing polymerization: polymerization induced (PI +)
T1 construct: Purified rabbit muscle actin (Cytoskeleton Inc., Denver, Mo.); purchased Cytoskeleton Inc; host or cells: rabbit muscle
Protocol: The peptides in Table 2 were added to polymerised actin in vitro at different molar ratios. Centrifugation was used to separate fractions containing F-actin, G-actin and bundled actin, which were then run out on […]. Purified rabbit muscle actin (Cytoskeleton Inc., Denver, Mo.) was depolymerized in Low Salt Buffer [LSB; 5 mM Tris-HCl, pH 8.0, 0.2 mM CaCl2, 0.2 mM ATP, 0.5 mM DTT, mM sucrose) for 1 h on ice and denucleated by centrifugation for 1 h at 100,000×g, 4° C. 13 μM monomeric actin was polymerized in vitro by addition of 1/50 vol. […] The samples were centrifuged for 15 min at 10,000×g at room temperature to pellet “bundled filaments”. The resulting supernatant was centrifuged for 1 h at 100,000×g at room temperature to separate F-actin filaments […]. The fractions were boiled in SDS-sample buffer and analyzed on a 10% SDS-Polyacrylamide gel stained with Coomassie.

[2] = test system: MDA 231 cells; assay: Actin reorganization in MDA 231 cells electroporated with peptide, rhodamine-phalloidin stained; type: cell-based, human; details: MDA 231 cells electroporated with peptide
Protocol: Referring now to FIG. 2, it can be shown that treatment with an active peptide results in actin organization in human mammary epithelial tumor cells. MDA 231 cells were electroporated with SS1 (panel A) or SS12 (panel B), fixed, and rhodamine-phalloidin stained. Control epithelial tumor cells were treated with SS1 (SEQ ID NO: 9) resulting in no effect on actin-filled lamellipodia (or ruffling) characteristic of crawling cells.
MDA 231 cells are a particularly aggressive tumor cell line crawling and moving from between tissues.

[3] = test system: Embryos from Xenopus laevis; assay: Actin-dependent cleavage in embryos injected with peptide; type: in vivo; details: 0.6 mg/mL final concentration in egg; for effect on cell division of embryos: injected, fixed at 8-cell stage
Text: Referring now to photographs of FIG. 3 the peptides have a severely abnormal effect on the embryonic development of cells. […] The embryos resemble the uninjected normal embryos of FIG. 3A
The resulting blastomeres were unable to regain function and were severely abnormal showing abortive cleavage furrows.
However, in the embryos injected with the active peptide (FIG. 3F), filamentous actin is seen in the abortive cleavage furrows.

[4] = test system: dextran-labeled electroporated cells; assay: Change in number of dextran-labeled cells after electroporation with peptide; type: cell-based; details: dextran-labeled cells counted before and after 18 hrs incubation
Protocol: Electroporated cells were treated with fluorescent dextran plus peptide so those cells receiving the peptide could be identified. Typically a very small number of cells successfully incorporate substance during electroporation, making it difficult to identify those receiving peptide. Typically one sees 10-20% incorporation. But, there is good evidence showing that if a cell incorporates one component in buffer, it will incorporate all components. Thus, dextran can be used to identify those cells receiving peptide. After electroporation of cells with fluorescent dextran and the active peptide SEQ ID NO: 12, the dextran-labeled cells were initially counted and then incubated for 18 hrs. After incubation overnight, the dextran-labeled cells were once again counted. The following Tables 4 and 5 show the average change in dextran-labeled cells after the cells are electroporated and the peptide has invaded the cell body. The cell numbers of the SS12 treated peptide seemed to fluctuate after incubation with various concentrations of the SS12 peptide.

[5] = test system: actin comet tails in Xenopus egg extracts; assay: Actin comet-tail formation in cytoplasmic extracts; type: biochemical, Xenopus laevis; details: for effect on actin comet tails: FIGS. 4C, 4D, 4F, concentration not given
Protocol: In FIGS. 4A and 4B, in vitro polymerized actin forms comet tail from rhodamine-labeled actin added to Xenopus laevis egg cytoplasmic extract. This was set up according to the protocol in Taunton et al., J Cell Biol. 2000 Feb. 7; 148(3):519-30.
Crude Xenopus egg extract was prepared as described except that cytochalasin D was omitted (Murray and Kirschner, Nature. 1989 May 25; 339(6222):275-80). Cytosol and a heavy membrane fraction were prepared by centrifugation of the crude extract (2 h, 300.000 g max; BECKMAN SW-50 rotor). The viscous glycogen pellet beneath the membrane layer was discarded. Cytosol was further clarified by spinning for 15 min at 541,000 g max (BECKMAN TLA 100.3 rotor). Crude membranes (diluted with one volume of 2 M sucrose) and cytosol were snap frozen in separate aliquots for storage at −80° C. unless otherwise indicated. Clarified cytosol contained a small population of vesicles, but motility assays were far more robust (more comet tails over a longer time period) when cytosol was supplemented with the heavy membrane fraction.
For the standard assay, crude membranes in 1 M sucrose (20-μl aliquot, derived from ˜80 μl crude extract) were washed and resuspended in 14 μl buffer A (50 mM NaCl, 5 mM MgCl2, and 50 mM tris [pH 7.5]). To the membrane suspension were added 35 μl cytosol (derived from ˜80 μl crude extract), 0.3 μl rhodamine-labeled actin (prepared according to Kellogg et al., Development. 1988 August; 103(4):675-86), 3 μl PMA (20 μM stock in 10% DMSO), and 20 μl buffer A at 4° C. 20-μl samples were then warmed to room temperature. After 30-40 min, 2-μl aliquots were viewed with a Nikon E800 microscope to yield the photomicrographs of FIG. 4. Images were acquired with a Princeton Instruments cooled CCD camera (standard rhodamine filter set, Princeton Instruments, Trenton, N.J.) and analyzed with WINVIEW (Visitron System, Puchheim, Germany) or METAMORPH software (Princeton Instruments, Trenton, N.J.). Pixels having an intensity over a threshold value (set to a value greater than the background fluorescence in regions devoid of comet tails) were summed over 10 random fields to quantitate relative actin assembly.
Cytosol was supplemented with a crude membrane fraction, rhodamine-actin, 1 μM PMA and peptide SS2 or SS12 (1 μM). After incubating at room temperature for 20 min, samples were viewed by fluorescence. Actin comet tails formed in Xenopus cytoplasmic extracts where no SS2 or SS12 peptides were added as shown by the photographs A, B and E of FIG. 4.

[6] = molecular target: T2, rabbit muscle aldolase with actin (Oryctolagus cuniculus, UniProt P68135); assay: Aldolase co-precipitation with polymerized actin; type: biochemical; details: 1 nmol aldolase, 100 nmol peptide
T2 construct: presence (lanes 4-6) of rabbit muscle actin (2 nmol); purchased Sigma (aldolase); host or cells: rabbit muscle
Text: Referring now to FIG. 7, since the SS2 sequence is specific to SuSy protein (with SS2 having some similarity to actin), we tested its effect on the well-known interaction of rabbit muscle aldolase with actin (Winter et al. 1998, Rabbit muscle aldolase was purchased from Sigma). Phalloidin could potentially interfere with the peptides of the invention since both drugs affect actin.
Addition of SS2 peptide had no effect on aldolase precipitation in the absence of actin (FIG. 7A), but increased the amount of aldolase co-precipitating with polymerized actin (FIG. 7B). Although binding of aldolase to actin is not sucrose dependent as shown for SuSy, the presence of Sucrose in the polymerization assay caused an additional increase in the amount of aldolase bound to polymerized actin as shown by lane 6 in FIG. 7B. Rabbit muscle aldolase (1 nmol) was incubated in the absence (lanes 1-3) or presence (lanes 4-6) of rabbit muscle actin (2 nmol).

[7] = 1:1 molar ratio peptide:actin, FIGS. 6C, 6D

WISRFEVW (Small block of SS12 sequence required for less active synthetic peptide) [SMIN]
In vitro actin bundling activity [1]: less active | activity designation of the peptide in the sequence list (active / less active / inactive) [1]: SMIN less active

GDRVLSRLHSVRERIGK (synthetic SS1 inactive control peptide) [reference compound]
activity designation of the peptide in the sequence list (active / less active / inactive) [1]: SS1 inactive | effect on actin-filled lamellipodia [2]: no effect | effect on cell division of embryos [3]: no effect | % change in cell number [4]: +45.0% | % change in cell number ([4]; peptide concentration 0.2 μM): +1.2% | % change in cell number ([4]; peptide concentration 1.0 μM): +17.4% | % change in cell number ([4]; peptide concentration 10.0 μM): +43.8%

ILRVPFRTENGIVRK (SS11 inactive synthetic peptide)
bundling of actin during in vitro polymerization [1]: not effective in bundling; also recorded: did not cause actin to bundle | bundled actin upon inducing polymerization [1, 7]: do not produce bundled actin | In vitro actin bundling activity [1]: inactive | activity designation of the peptide in the sequence list (active / less active / inactive) [1]: SS11 inactive

RRISSVEDKK (SP3 inactive synthetic peptide) [reference compound]
bundled actin upon inducing polymerization [1, 7]: do not produce bundled actin | In vitro actin bundling activity [1]: inactive | activity designation of the peptide in the sequence list (active / less active / inactive) [1]: SP3 inactive

GPTLKRTASTAFMNTTSKK (NR11 inactive synthetic peptide) [reference compound]
In vitro actin bundling activity [1]: inactive | activity designation of the peptide in the sequence list (active / less active / inactive) [1]: NR11 inactive

ENGIVRKWISRFEVW (synthetic peptide derived from Zea mays SuSy2 protein 357-389) [SEQ ID NO: 3, Zea mays SuSy2 375-389]
effect on actin comet tails [5]: complete disruption of the comet tails

GIVRKAISRFEVAPYL (SS15 less active synthetic peptide)
bundled actin upon inducing polymerization [1, 7]: did not cause bundled actin | In vitro actin bundling activity [1]: less active | form of polymerised actin ([1]; molar ratio peptide:actin 10:1 and 100:1, added to unpolymerized actin, FIG. 6E): predominantly in the bundled form | activity designation of the peptide in the sequence list (active / less active / inactive) [1]: SS15 less active

GRMRRIATVEMMKK (SP26 inactive synthetic peptide) [reference compound]
bundling of actin during in vitro polymerization [1]: not able to bundle actin filaments in vitro | In vitro actin bundling activity [1]: inactive | activity designation of the peptide in the sequence list (active / less active / inactive) [1]: SP26 inactive

GIVRKWISRFEVWPYLKK (SS2 active peptide based on Zea mays SuSy 377- 392)
bundling of actin during in vitro polymerization [1]: most active | bundling of already polymerized (filamentous) actin ([1]; 2 nmol actin polymerized 30 min, then 0, 1, 2, 4 and 20 nmol peptide for 30 min, FIG. 6B): Only the highest concentration of SS2 caused bundling | bundled actin upon inducing polymerization [1, 7]: the bulk of the actin is bundled | bundled actin with peptide alone ([1]; 1:1 molar ratio peptide:actin, polymerization not induced, FIGS. 6C, 6D): half of the actin bundled | effect of phalloidin on bundling activity of the peptide ([1]; FIG. 7): not affected | In vitro actin bundling activity [1]: active | distribution of actin between bundled and F-actin fraction ([1]; added to unpolymerized actin, molar ratio peptide to actin 0.5, FIG. 6A): half-bundled and half-F-actin | activity designation of the peptide in the sequence list (active / less active / inactive) [1]: SS2 active | amount of aldolase co-precipitating with polymerized actin ([6]; 2 nmol actin, FIG. 7B): increased | aldolase precipitation in the absence of actin ([6]; FIG. 7A): no effect | lasting effect on cell division ([3]; divisions typically an hour apart): at least 3 divisions | effect on cell division of embryos [3]: block several cell divisions | effect on actin comet tails [5]: complete disruption of the comet tails | actin comet tail formation ([5]; peptide 1 μM, 1 μM PMA, 20 min at room temperature): little or no actin comet tail formation

From patent publication US8039438B2, “Synthetic peptides that cause F-actin bundling and block actin depolymerization” (The Regents of the University of California, priority 2003, dated 2011)
